Here are results for 17 sequences from a protein production outcome set (Wang et al. 2014).

This data set in a line: label from the status in PepcDB records.
With “MRKFTILLLLLWLPSFVSSLTEFDSVMDLRKQLIVLTGWLGFAYMGAAIVLSARFKWTERLVKGLDKAYGLHKKLGISAFIALLLHWLVIKAAHWAVQLGWLVRPTHAGKERVITGVDWISLAEKVGDISFKVFILFTIISLVERISYKKFKGIHKIGGALMLAGVFHTLFLIKWDLSLIPMNIAIILISAISVWCAILSLTGSIGKKNKIGGQVVLVDKFKDDSEFTVVARLQIKLESKLRYKEGQFAYINFHDGEAPHPFSILNYNEKTRLVEFGIKDLGDYTHQLVNQIAVGKKATVEGGYGYFQVPSDMNQVWVGAGIGIVPLLSRLYWLQKSTDKTTKRIEKIHLFYCVNNEKEAFFSTEIKAILRKMDFIELHLIESDKGYRLTSEYILNKIDNESFSVSFCGPEGFGMSLKQGLMANGLPEASFHKEIFKMR”, the protein production entry is “failed”.
With “MLELFMQPEAWVIFATLFALEVVLGVDNVVFISVLCERLPSHQRKLARNLGIGLAVLARIGLVFSITWIMQLTQPLFSVANHAVTGRDMIMILGGAFLLAKSLKELWSWLTHNETDHSTHVRTGLAVVLLQIVAVDAVFSMDSVITAVGLTSEVPLMVAAIIASALVMVMTAEKINNLVTRYPGFKTLALLFLVLLGGLLMAEGFAIHINKGYVYFAMAFGLALELCHIQLKNKQRRTIQRIRPMHDVAT” the entry was “failed”; with “MAERINPVVKAVLEWGPIAAFFLGYVKLKDETFTVAGTDYQGFIIVTAAFIPLMVICTGLLWWLSGKLSKMQVATVVLVVVFGGLSVWLNDDRFFKMKPTMIYLLFGVLLGIGLLRGQSWLRLVLEEAIPLQDEGWMILTRRVMAFFFALAIANEAVWRLMSTDAWVNFKTFGLPLAIFVFFMTQSGLFKRYNPERKDEA”, “not failed”; with “LRSRRKPSSRIGRRPSTTQDRISTVGIELFTEQGFDATSVDEVAEASGIARRTLFRYFPSKNAIPWGDFDAHLAEMRAQLAAQPDDIPIVDGLTAALLQFNAFPASEEINHRKRMGLILRVPALQAYSVVMYEGWRNVIAEYVASRLGTSPTDHVPRTVGYLLLGVAMSAYEQWLDDDSLELNELLASGMQSLYDGLSSLGEPDTRT”, “not failed”.
With “MVYLLPFFTVMIWGGNSIVNKMAASTIEPSAMSFYRWFVAMVLLTPFCLPAVIKQRHVIRPYLTKLAFLALLGMVLNQSLGYYAGLTTTASNMALITSLVPLISVFLSVPLLGKSVSMLSIVGGVISLGGLAFMLGHGDVTYFLHQDMTQGDSLMLLAALVYAAYCVLLKRWKMPFNSLTLVYMQGFFSVIMLTPLWLSSEQLLPSQEALPLIAYAGIAASIFAPLMWVKAIDLIGADSSAMFMNLMPVVSVALASTLLGEEIHVYHIIGGLMVISGVILSQIKVRKKQDLVVSESLTTTTR” the entry was “failed”.
The same measure for “MGHHKAMPYADVAAFIIELRKREAVAATALEFTILTAARSGETLGAKWHEIDWKDKIWTVPAERMKAAREHRVPLSSRTITILKKLAEFGSDENSFVFPGQKPGKPLSVMAMDMVLRRMEVDVTVHGFRSSFRDWCGEVSNFPRDVAEAALAHLEHHHHHH”: “not failed”; for “MNKVLINDTTLRDGEQAAGVVFTLEEKVAIAKFLDTIGVPELEVGIPAMGEEEMRAICAISNLGLKANLLAWNRAVISDIKASVACGMERVHIAIPVSGIQIAAKFHGQWRVSLQRLKDCISFAVDQGLWVAVGGEDSSRADENFLLDVALYAQEWGASRFRFCDTVGVLDPFTTYGKVKLLVSALTIPVEVHTHNDFGMATANALAGIKAGASSVNTTVIGLGERAGNAALEEVVMAIKRIYGVDMGIDTPRLLELSQLVAAASGANVPPWKAIVGENTFAHESGIHAHGVLQNPDTYEPFAPEEVGWERRLVVGKHSGRHSVSNLLEQHGIFLNPEETQSVLDAVRQQSIKKLEHHHHHH”: “failed”.
For the sequence “MKTREEKMNKTILLLACLLGLVACSSQYIMSTKDGKMITSDSKPKLDKTTGMYLYYDEDGREVMIKQEDVTQIIERLEHHHHHH”, the protein production result is “not failed”.
With “MARYLVVAHRTAKSPELAAKLKELLAQDPEARFVLLVPAVPPPGWVYEENEVRRRAEEEAAAAKRALEAQGIPVEEAKAGDISPLLAIEEELLAHPGAYQAIVLSTLPPGPSRWLRLDVHTQAERFGLPVIHVIAQAA” the entry was “not failed”; with “MKRVANWLAITGFVVHAISLVAGLQGHTWETISKGYFLQMLSWSMLLIYLFVWWKFKLDFLSALASPFALLIYLSSFKVAEVQSKLPESLSGLFFGLHIGTLFLSFGLMAMAFGAGVLFLHMERKIKTKEPLTGFRKDLPALSTFDRVNRLCVVWGFPLFTLGIVSGFVWAHPAWGKVITWDPKEIVSLAVWVMYALLFHQRVALGWQGRKPAVMVIWIFAVSVFSLIVVNVFMPTHHSFIQQ”, “failed”.
With “MLGAAPENCTVNELNPDRANQLRSQGFTVTEQDATAYLPNQLYDVVIMNPPFGRVKGKRFRLAGEMGTTSQIDQAIALHSLQAMKDDGRAVLILG” the entry was “failed”; with “MSGTLFTYRRKVDFGDCDSARIYFTPRAVDYAVEAVEAWFGDVLGVSWADLFLRHDLDVTFVRMGCEYFRPVIADQTVHVRVRATAVDRSSVTFSAAGEDDSGGVFFRATLVAQFRAGRNRAPVPIPPRYRERMEDCLEQADGKSGTVAQRVGGEPFLSRLQSDGVHFTVRRRVVYGDCTLSGTVYAPRLFNYAVEAVGEWYRETLGISWREQCIRLRGAPFREVWCERLAPLVPGQVITMTVGIPRLGKSSIGYEVVGYDDRGEPCFQVGMSACYISEETGSIKAIPFPDDMRSRILAYQVLCDQGVIPATAS”, “failed”; with “MGKTAIKSTAKVLSFVVQKHWATRLHYDFRLELEGTMKSWAVPKGPSFDPNDKRMAVHVEDHPISYNSFEGEIPSGQYGAGKVIIWDKGTWIPLEDPHKGYRDGKLKFELRGLKLKGHWALVRMRKEENKKQEPWLLIKEKDEYVRSSREYSVVDEMPDSVAELEHHHHHH”, “not failed”.
With “SLRADKPKCSIQNFFIPALGKDPNSRDNTTLNFMVRCDNPNKDKGIYYDDVHLNFSTINTTKINSSALVLVGNYTVPKFYQGHKKKAKKWGQVKPLNNQTVLRAVLPNGSAVFRLDLKTQVRFKIVFWKTKRYGVEVGADVEVNGDGVKAQKKGIKMKKS” the entry was “not failed”; with “MLSKFLLFSARLSTTKILASLIIIMILATGLYQWLIHTPAFSPQVSAVSTTTENDFSLTDWTINLVDKLNWQQGGSSTFFNAGLLFVFLSLATSVGLPRQIAALVAGINLGAFIGIIVATLAATLGCFITFSVARYLLSDCITRKYPSKLAQLSAFLGEQTFLKAIVIRILPLGSNFITNIIAGVSKVSMPAYVSGSFVGFIPQMVIFSLAGSGIRLGAQNELIASATLFVIALILTTYLVKKHKAKTKN”, “failed”.
For “MFHLIRWQDIADIIIMSFLAYRLYSWFRHTRAMQVLIGLGILAGVYFVTRNLGLFMTSWILQELGTVLFVLIIVVFQAEIRQALYRFSLLRTFIGRQEGGGELDLAELGRTVFGLARERTGALIVLQRQEALDDYLLHGVKVDGLPSSHLLGSIFRNGTPLHDGAVIIKDGRVSQASCHLPLSMKTELPQNFGTRHRAGIGLSERSDAVVIIVSEERGEVGMALAGEYRKIASPEEFAEVIQGLLYPQRPENVAFTLRQRLLRNLVPKIVTTLIVIAGWLVVTTKEGGIFTVTVPIKFHNLPPRSVLVKSVPESVEVQLKVFTSLIPSPRQLDLVADLNLAGVHDGVNSLAVKDDDLNLPLGVVVTGINPPMVKVTIAGKERKQLRVRPKLTGQLPGRAKLRSVTADPDTVVVEGPGHLLEGLESLPTETVDLAGLRRGGVVERRVVSPSPQIRVLRDEPVRVVVVTSVK”, the protein production entry is reported as “failed”.
As to “MGHHHHHHSHMATSRYEPVAEIGVGAYGTVYKARDPHSGHFVALKSVRVPNGGGGGGGLPISTVREVALLRRLEAFEHPNVVRLMDVCATSRTDREIKVTLVFEHVDQDLRTYLDKAPPPGLPAETIKDLMRQFLRGLDFLHANCIVHRDLKPENILVTSGGTVKLADFGLARIYSYQMALTPVVVTLWYRAPEVLLQSTYATPVDMWSVGCIFAEMFRRKPLFCGNSEADQLGKIFDLIGLPPEDDWPRDVSLPRGAFPPRGPRPVQSVVPEMEESGAQLLLEMLTFNPHKRISAFRALQHSYLHK”, the protein production result is given as “failed”.
